Residue numbers refer to the chain shown, from its start. Each block holds one binder with its values, some of them ahead of it.
Key:
[1] = target: T1, human IL-23 (human, UniProt P29460 23-328; Q9NPF7 20-189); assay: ELISA, coated IL-23
T1 construct: Recombinant (Ebioscience); HIS-tagged in flow cytometry, biotinylated in some assays; also called hIL-23; rhIL-23
T1 sequence 1: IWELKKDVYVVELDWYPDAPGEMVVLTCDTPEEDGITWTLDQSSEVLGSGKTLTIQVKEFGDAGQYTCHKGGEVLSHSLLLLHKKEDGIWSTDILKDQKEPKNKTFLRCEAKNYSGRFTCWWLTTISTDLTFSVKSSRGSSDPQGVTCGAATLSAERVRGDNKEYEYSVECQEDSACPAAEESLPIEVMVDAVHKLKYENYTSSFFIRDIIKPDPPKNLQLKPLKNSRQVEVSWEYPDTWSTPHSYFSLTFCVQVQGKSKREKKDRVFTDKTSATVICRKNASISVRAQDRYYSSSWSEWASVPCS
T1 sequence 2: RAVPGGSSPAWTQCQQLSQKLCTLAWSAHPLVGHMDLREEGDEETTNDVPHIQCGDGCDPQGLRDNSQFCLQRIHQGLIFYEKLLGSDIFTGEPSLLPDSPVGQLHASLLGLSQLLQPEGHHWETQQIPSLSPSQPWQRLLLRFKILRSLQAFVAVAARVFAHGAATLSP
Method in brief: (§1)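 Binding values are absorbance readings. After cytokine (1 μg/mL, carbonate buffer pH 9.6) was coated onto Maxisorp plates overnight at 4° C and the plates were blocked with 1% BSA in PBS, antibody titrations were bound for 1 hour at 25° C and detected with HRP-linked goat anti-human IgG or anti-murine immunoglobulin (1:2000). Color from TMB, stopped with 1M HCl, was read at 450 nm with 620 nm as reference.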

[2] = target: T2, human IL-12 (human, UniProt P29460 23-328; P29459 23-219); assay: ELISA, coated IL-12
T2 construct: Recombinant (Peprotech); FLAG-tagged IL-12 in the flow cytometry assays, biotinylated in the IL-12Rβ2 assay; also called hIL-12
T2 sequence 1: T1 sequence 1
T2 sequence 2: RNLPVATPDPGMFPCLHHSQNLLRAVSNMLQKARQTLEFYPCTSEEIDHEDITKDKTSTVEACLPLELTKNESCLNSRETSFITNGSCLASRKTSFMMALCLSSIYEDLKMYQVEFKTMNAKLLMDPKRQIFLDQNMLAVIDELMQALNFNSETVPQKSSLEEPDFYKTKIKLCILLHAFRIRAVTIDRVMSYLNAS
Method in brief: as §1

[3] = target: T2, human IL-12; assay: SPR, IgG on Protein A
Protocol: (§2) Using SPR technology the kₐ and kd and the KD of various humanized antibodies was determined.
(§3) Using a SPR 3000, Protein A was immobilized onto FC1 and FC2 (or alternatively FC3 and FC4) of a CM5 research grade sensor chip using amine coupling, giving approximately […] RU. FC1 was used a blank throughout the experiments. The experiments were run in HBS-P buffer (SPR). At a flow rate of 20 μl/min, 20 μl of 5 μg/mL of antibody was passed over FC2. IL-12, IL-23 or IL-12p40 (Peprotech) were passed over the surface of FC1 and FC2 at concentrations ranging from 66 nM to 2 nM. Regeneration of the surface was performed using 10 mM Glycine, pH 1.0. The sensorgram data from FC2 was subtracted from FC1 and a buffer only control. The curves were fitted using a 1:1 Langmuir equation to generate the kd, ka and KD values. All curves were fitted with a χ² of less then 2.0 where possible.

[4] = target: T1, human IL-23; assay: SPR, IgG on Protein A
Protocol: as §2, §3

B1: Antibody 93 (antibody, human IgG1, kappa, V domains shown)
VH: EVQLVQSGAEVKKPGATVKISCKASGYTFSDYYLHWVRQAPEKGLEWMGWIDPENGDTEYAPKFQGRVTITADTSTDTGYLELSSLRSEDTAVYYCNANKELRYFDVWGQGTLVTVSS
VL: DIQMTQSPSSVSASVGDRVTITCRASQSISINLHWYQQKPGKAPKLLIYFASQSISGVPSRFSGSGSGTDFSLTINSLQPEDFARYYCQQSNSFPLTFGGGTKVEIKR
- binding result [1]: binds
- binding result [2]: binds

B2: Antibody 104 (antibody, human IgG1, kappa)
heavy chain: not shown
light chain: DIQMTQSPSSVSASVGDRVTITCRASQSISINLHWYQQKPGKAPKLLIYFASQSISGVPSRFSGSGSGTDFSLTINSLQPEDFARYYCQQSNSFPLTFGGGTKVEIKRTVAAPSVFIFPPSDEQLKSGTASVVCLLNNFYPREAKVQWKVDNALQSGNSQESVTEQDSKDSTYSLSSTLTLSKADYEKHKVYACEVTHQGLSSPVTKSFNRGEC
- binding result [1]: binds
- binding result [2]: binds

B3: Antibody 182 (antibody, human IgG1, kappa, V domains shown)
VH: B1 VH with F29L, Y60H, N97A
VL: B1 VL with P80T, R85T
- Kd [3]: 0.0344 nM
- koff [3]: 0.000214 s⁻¹
- kon [3]: 6.23e+06 M⁻¹ s⁻¹
- Kd [4]: 0.0246 nM
- koff [4]: 0.000129 s⁻¹
- kon [4]: 5.27e+06 M⁻¹ s⁻¹

B4: Antibody 94 (antibody, human IgG1, kappa, V domains shown)
VH: B1 VH with A98R
VL: B1 VL
- binding result [1]: binds
- binding result [2]: no binding (tested: not given)

B5: Antibody 100 (antibody, human IgG1, kappa)
heavy chain: not shown
light chain: B2 light chain
- binding result [1]: binds
- binding result [2]: binds

B6: Antibody 98 (antibody, human IgG1, kappa)
heavy chain: not shown
light chain: B2 light chain
- binding result [1]: binds
- binding result [2]: binds

B12: Antibody 180 (antibody, human IgG1, kappa, V domains shown)
VH: B1 VH with F29L, Y60S, N97A
VL: B1 VL with P80T, R85T
- Kd [3]: 0.0325 nM
- koff [3]: 0.000173 s⁻¹
- kon [3]: 5.31e+06 M⁻¹ s⁻¹
- Kd [4]: 0.0297 nM
- koff [4]: 9.27e-05 s⁻¹
- kon [4]: 3.12e+06 M⁻¹ s⁻¹

B15: Antibody 181 (antibody, human IgG1, kappa, V domains shown)
VH: B1 VH with Y60H, N97A
VL: B1 VL with P80T, R85T
- Kd [3]: 0.0681 nM
- koff [3]: 0.000244 s⁻¹
- kon [3]: 3.57e+06 M⁻¹ s⁻¹
- Kd [4]: 0.0424 nM
- koff [4]: 0.000173 s⁻¹
- kon [4]: 4.09e+06 M⁻¹ s⁻¹

B17: Antibody 177 (antibody, human IgG1, kappa, V domains shown)
VH: B1 VH with Y60S, N97A
VL: B1 VL with P80T, R85T
- Kd [3]: 0.046 nM
- koff [3]: 0.000212 s⁻¹
- kon [3]: 4.61e+06 M⁻¹ s⁻¹
- Kd [4]: 0.0373 nM
- koff [4]: 0.000128 s⁻¹
- kon [4]: 3.43e+06 M⁻¹ s⁻¹

B18: Antibody 205 (antibody, human IgG1, kappa, V domains shown)
VH: QVQLVQSGAEVKKPGASVKVSCKASGYTFTDYYLHWVRQAPGRGLEWMGWIDPENGDTEYAPKFQGRVTMTTDTSTSTAYMELRSLRSDDTAVYYCAANKELRYFDVWGQGTMVTVSS
VL: EIVMTQSPATLSVSPGERATLSCRASQSISINLHWYQQKPGQAPRLLIYFASQSISGIPARFSGSGSGTEFTLTISSLQSEDFAVYYCQQSNSFPLTFGGGTKVEIKR
- Kd [3]: 0.157 nM
- koff [3]: 0.000581 s⁻¹
- kon [3]: 3.7e+06 M⁻¹ s⁻¹
- Kd [4]: 0.0862 nM
- koff [4]: 0.000415 s⁻¹
- kon [4]: 4.81e+06 M⁻¹ s⁻¹

B19: Antibody 192 (antibody, human IgG1, kappa, V domains shown)
VH: B18 VH with F29L, R43Q
VL: B1 VL with P80T, R85T
- Kd [3]: 0.0855 nM
- koff [3]: 0.000356 s⁻¹
- kon [3]: 4.16e+06 M⁻¹ s⁻¹
- Kd [4]: 0.0794 nM
- koff [4]: 0.000211 s⁻¹
- kon [4]: 2.66e+06 M⁻¹ s⁻¹

B20: Antibody 190 (antibody, human IgG1, kappa, V domains shown)
VH: B18 VH with R43Q, A97N
VL: B1 VL with P80T, R85T
- Kd [3]: 0.217 nM
- koff [3]: 0.00084 s⁻¹
- kon [3]: 3.86e+06 M⁻¹ s⁻¹
- Kd [4]: 0.142 nM
- koff [4]: 0.000609 s⁻¹
- kon [4]: 4.28e+06 M⁻¹ s⁻¹

B21: Antibody 198 (antibody, human IgG1, kappa, V domains shown)
VH: B18 VH with T28A, R43Q
VL: B1 VL with P80T, R85T
- Kd [3]: 0.158 nM
- koff [3]: 0.000594 s⁻¹
- kon [3]: 3.75e+06 M⁻¹ s⁻¹
- Kd [4]: 0.0877 nM
- koff [4]: 0.000409 s⁻¹
- kon [4]: 4.65e+06 M⁻¹ s⁻¹

B22: Antibody 195 (antibody, human IgG1, kappa, V domains shown)
VH: B18 VH with R43Q, Y60H
VL: B1 VL with P80T, R85T
- Kd [3]: 0.103 nM
- koff [3]: 0.000274 s⁻¹
- kon [3]: 2.65e+06 M⁻¹ s⁻¹
- Kd [4]: 0.05 nM
- koff [4]: 0.000202 s⁻¹
- kon [4]: 4.03e+06 M⁻¹ s⁻¹

B23: Antibody 193 (antibody, human IgG1, kappa, V domains shown)
VH: B18 VH with R43Q, Y60S
VL: B1 VL with P80T, R85T
- Kd [3]: 0.0794 nM
- koff [3]: 0.000206 s⁻¹
- kon [3]: 2.6e+06 M⁻¹ s⁻¹

B24: Antibody 194 (antibody, human IgG1, kappa, V domains shown)
VH: B18 VH with F29L, R43Q, Y60S
VL: B1 VL with P80T, R85T
- Kd [3]: 0.0927 nM
- koff [3]: 0.000194 s⁻¹
- kon [3]: 2.09e+06 M⁻¹ s⁻¹
- Kd [4]: 0.041 nM
- koff [4]: 0.000122 s⁻¹
- kon [4]: 2.99e+06 M⁻¹ s⁻¹

The next lines start with the values.

- binding result [1]: binds
- binding result [2]: binds
B7: Antibody 103 (antibody, human IgG1, kappa)
heavy chain: not shown
light chain: B2 light chain

- binding result [1]: binds
- binding result [2]: binds
B8: Antibody 102 (antibody, human IgG1, kappa)
heavy chain: not shown
light chain: B2 light chain

- binding result [1]: binds
- binding result [2]: binds
B9: Antibody 107 (antibody, human IgG1, kappa, V domains shown)
VH: B1 VH with T28N, N97A
VL: B1 VL

- binding result [1]: binds
- binding result [2]: binds
B10: Antibody 101 (antibody, human IgG1, kappa)
heavy chain: not shown
light chain: B2 light chain

- binding result [1]: binds
- binding result [2]: binds
B11: Antibody 97 (antibody, human IgG1, kappa)
heavy chain: not shown
light chain: B2 light chain

- binding result [1]: binds
- binding result [2]: binds
B13: Antibody 106 (antibody, human IgG1, kappa, V domains shown)
VH: B1 VH with Y27F, N97A
VL: B1 VL

- binding result [1]: binds
- binding result [2]: binds
B14: Antibody 99 (antibody, human IgG1, kappa)
heavy chain: not shown
light chain: B2 light chain

- binding result [1]: binds
- binding result [2]: binds
B16: Antibody 105 (antibody, human IgG1, kappa, V domains shown)
VH: B1 VH with K23T, N97A
VL: B1 VL
